For assay [1], the target named is T1, recombinant αvβ8 ectodomain (UniProt P06756 31-992; P26012 43-684, limits assumed).
T1 construct: extracellular domain; the ELISA and the reporter assays say only 'recombinant αvβ8'; also called recombinant integrin αvβ8; immobilized αvβ8
Description: kinetic exclusion assay (KinExA). How it is done:
Affinity for the antibodies described in the Examples was determined using a kinetic exclusion assay format. KinExA (https://www.sapidyne.com). The affinity was calculated as follows: […]

Assay [2] addresses T2, integrin αvβ8 on human ovarian carcinoma line OVCAR3 (human, UniProt P06756 31-1048; P26012 43-769).
T2 construct: whole, on cells; also called OVCAR3 cells
Description: flow cytometry on OVCAR3 cells, 15 min at 4 °C, detection with anti-mouse (H+L)-PE, MFI against nM antibody. How it is done: (§1) All antibodies were produced in CHO cells. […] Primary […] were incubated at 4° C. for 15 min.

The target of assay [3] is T1, recombinant αvβ8 ectodomain. Description: cell-based or functional assay.
Assay [4] deals with T2, integrin αvβ8 on human ovarian …. Description: flow cytometry on OVCAR3 cells, 15 min at 4 °C, detection with anti-mouse-PE, MFI against antibody concentration, KaleidaGraph fit. How it is done:
(§2) ELISA plates were coated with antibodies (2 μg/ml), washed, blocked with BSA, and then recombinant integrins were added at the indicated concentrations. After a brief incubation at RT, wells were washed and bound integrin detected with biotin conjugated anti-αv (8B8-biotin, 1 μg/ml) followed by Streptavidin-HRP. […] Antibodies were incubated at the indicated concentrations for 15 min at 4° C. and after washing detected with anti-mouse-PE.

Assay [5] addresses recombinant integrin αvβ3 (UniProt P06756 31-992; P05106 27-718). Kind of assay: ELISA: plate coated with antibody (2 µg/ml), recombinant integrin added, detected with 8B8-biotin and Streptavidin-HRP. How it is done: as §2
In assay [6] the target is T3, recombinant integrin αvβ6 (UniProt P06756 31-992; P18564 22-707, limits assumed). The assay is described as above. How it is done: as §2
Assay [7] deals with recombinant integrin αvβ5 (UniProt P06756 31-992; P18084 24-719). The description is as above. How it is done:
as §2

Assay [8] addresses recombinant integrin αvβ1 (UniProt P06756 31-992; P05556 21-728). The description is as above. How it is done:
as §2

Assay [9] concerns the target T1, recombinant αvβ8 ectodomain. Kind of assay: sandwich ELISA: antibody coated at 2 µg/ml, recombinant integrin titrated, bound integrin detected with anti-αv 8B8-biotin and streptavidin-HRP. How it is done:
ELISA plates were coated with antibodies (2 μg/ml), washed, blocked with BSA, and then recombinant integrins were added at the indicated concentrations. After a brief incubation at RT, wells were washed and bound integrin detected with biotin conjugated anti-αv (8B8-biotin, 1 μg/ml) followed by Streptavidin-HRP.

For assay [10], the target named is T2, integrin αvβ8 on human ovarian …. Description: competition flow cytometry on OVCAR3 cells: fixed ADWA11 2.4 (chimeric, murine IgG2a CH2/CH3) with titrated fully human C6D4 F12, 15 min at 4 °C, ADWA11 2.4 detected with anti-mouse (H+L) PE. How it is done: as §1
Assay [11] deals with T1, recombinant αvβ8 ectodomain. Kind of assay: cell-based or functional assay. This is another data set of the same source.
Assay [12] deals with T3, recombinant integrin αvβ6. Description: ELISA on coated integrin (1 µg/ml), antibody binding read as A450; antibody concentration not given.

Experimental findings from patent publication US20210277125A1 (University of California, published 2021) are described below.

T2 sequence (P06756 31-1048, chain 1 of 2): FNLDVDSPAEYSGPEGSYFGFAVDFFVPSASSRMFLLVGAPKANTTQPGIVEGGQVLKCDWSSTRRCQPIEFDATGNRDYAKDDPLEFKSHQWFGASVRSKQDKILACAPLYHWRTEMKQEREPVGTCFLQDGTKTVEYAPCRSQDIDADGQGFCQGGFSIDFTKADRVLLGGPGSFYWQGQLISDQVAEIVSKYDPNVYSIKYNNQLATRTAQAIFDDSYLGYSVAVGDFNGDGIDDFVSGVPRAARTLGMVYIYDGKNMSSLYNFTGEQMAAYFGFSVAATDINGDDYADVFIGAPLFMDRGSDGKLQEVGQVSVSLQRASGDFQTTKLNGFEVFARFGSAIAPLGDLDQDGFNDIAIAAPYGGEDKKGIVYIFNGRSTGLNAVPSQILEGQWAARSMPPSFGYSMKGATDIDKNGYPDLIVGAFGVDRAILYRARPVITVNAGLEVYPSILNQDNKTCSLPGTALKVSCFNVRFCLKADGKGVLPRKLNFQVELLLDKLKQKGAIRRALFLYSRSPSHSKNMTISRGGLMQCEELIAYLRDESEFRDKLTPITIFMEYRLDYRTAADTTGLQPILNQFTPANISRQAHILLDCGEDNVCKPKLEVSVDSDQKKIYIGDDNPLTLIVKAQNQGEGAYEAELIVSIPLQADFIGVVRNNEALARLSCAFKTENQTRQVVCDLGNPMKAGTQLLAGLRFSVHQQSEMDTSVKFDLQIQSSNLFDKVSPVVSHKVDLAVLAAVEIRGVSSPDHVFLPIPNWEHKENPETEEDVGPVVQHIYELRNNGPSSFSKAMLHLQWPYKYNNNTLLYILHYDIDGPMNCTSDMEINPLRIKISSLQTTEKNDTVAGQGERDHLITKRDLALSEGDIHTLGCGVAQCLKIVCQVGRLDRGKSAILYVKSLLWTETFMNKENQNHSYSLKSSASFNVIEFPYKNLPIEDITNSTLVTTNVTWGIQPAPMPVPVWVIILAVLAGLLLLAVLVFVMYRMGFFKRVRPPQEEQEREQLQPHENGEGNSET
T2 sequence (P26012 43-769, chain 2 of 2): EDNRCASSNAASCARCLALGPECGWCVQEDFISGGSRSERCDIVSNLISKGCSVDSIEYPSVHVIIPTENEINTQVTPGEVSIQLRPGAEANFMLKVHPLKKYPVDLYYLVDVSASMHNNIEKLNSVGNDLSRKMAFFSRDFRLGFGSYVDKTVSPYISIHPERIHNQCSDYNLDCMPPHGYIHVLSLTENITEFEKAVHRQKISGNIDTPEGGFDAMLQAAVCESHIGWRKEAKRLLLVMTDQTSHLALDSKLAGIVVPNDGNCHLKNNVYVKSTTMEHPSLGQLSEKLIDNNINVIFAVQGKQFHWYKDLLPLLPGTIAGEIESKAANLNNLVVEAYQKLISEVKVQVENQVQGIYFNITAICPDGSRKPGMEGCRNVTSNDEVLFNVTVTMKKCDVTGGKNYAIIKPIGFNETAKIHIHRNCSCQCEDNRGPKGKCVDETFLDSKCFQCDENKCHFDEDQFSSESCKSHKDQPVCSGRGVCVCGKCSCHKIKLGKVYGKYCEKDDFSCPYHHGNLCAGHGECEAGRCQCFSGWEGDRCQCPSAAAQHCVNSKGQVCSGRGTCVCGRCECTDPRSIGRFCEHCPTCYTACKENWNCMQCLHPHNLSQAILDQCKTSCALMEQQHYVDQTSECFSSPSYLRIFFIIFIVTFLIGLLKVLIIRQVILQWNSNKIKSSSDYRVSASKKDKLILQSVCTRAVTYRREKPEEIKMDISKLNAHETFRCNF
T1 sequence (P06756 31-992 limits assumed, chain 1 of 2): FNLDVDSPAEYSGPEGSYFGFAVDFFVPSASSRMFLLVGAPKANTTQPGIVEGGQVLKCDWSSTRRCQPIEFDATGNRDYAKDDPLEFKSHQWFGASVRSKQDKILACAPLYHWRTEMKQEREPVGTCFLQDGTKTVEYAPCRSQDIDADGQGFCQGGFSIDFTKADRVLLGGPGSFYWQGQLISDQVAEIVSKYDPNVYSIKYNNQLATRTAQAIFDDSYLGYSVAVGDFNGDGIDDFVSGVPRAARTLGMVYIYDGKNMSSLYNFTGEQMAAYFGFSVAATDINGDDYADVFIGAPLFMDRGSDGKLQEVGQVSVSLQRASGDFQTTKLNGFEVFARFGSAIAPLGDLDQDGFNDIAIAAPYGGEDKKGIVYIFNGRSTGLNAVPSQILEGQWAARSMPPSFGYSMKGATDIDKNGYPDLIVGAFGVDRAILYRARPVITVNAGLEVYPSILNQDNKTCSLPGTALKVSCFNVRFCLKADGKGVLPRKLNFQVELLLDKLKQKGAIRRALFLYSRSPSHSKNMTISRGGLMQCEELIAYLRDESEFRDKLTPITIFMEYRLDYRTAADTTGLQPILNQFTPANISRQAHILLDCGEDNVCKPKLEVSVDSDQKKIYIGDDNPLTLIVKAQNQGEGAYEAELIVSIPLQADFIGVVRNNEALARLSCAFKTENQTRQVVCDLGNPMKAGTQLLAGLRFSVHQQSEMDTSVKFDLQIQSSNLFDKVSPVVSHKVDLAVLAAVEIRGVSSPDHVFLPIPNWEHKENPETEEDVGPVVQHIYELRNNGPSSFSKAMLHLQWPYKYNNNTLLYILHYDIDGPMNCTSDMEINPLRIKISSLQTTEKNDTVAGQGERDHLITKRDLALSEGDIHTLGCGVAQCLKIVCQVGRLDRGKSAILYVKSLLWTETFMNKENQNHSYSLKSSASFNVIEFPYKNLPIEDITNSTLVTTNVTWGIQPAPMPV
T1 sequence (P26012 43-684 limits assumed, chain 2 of 2): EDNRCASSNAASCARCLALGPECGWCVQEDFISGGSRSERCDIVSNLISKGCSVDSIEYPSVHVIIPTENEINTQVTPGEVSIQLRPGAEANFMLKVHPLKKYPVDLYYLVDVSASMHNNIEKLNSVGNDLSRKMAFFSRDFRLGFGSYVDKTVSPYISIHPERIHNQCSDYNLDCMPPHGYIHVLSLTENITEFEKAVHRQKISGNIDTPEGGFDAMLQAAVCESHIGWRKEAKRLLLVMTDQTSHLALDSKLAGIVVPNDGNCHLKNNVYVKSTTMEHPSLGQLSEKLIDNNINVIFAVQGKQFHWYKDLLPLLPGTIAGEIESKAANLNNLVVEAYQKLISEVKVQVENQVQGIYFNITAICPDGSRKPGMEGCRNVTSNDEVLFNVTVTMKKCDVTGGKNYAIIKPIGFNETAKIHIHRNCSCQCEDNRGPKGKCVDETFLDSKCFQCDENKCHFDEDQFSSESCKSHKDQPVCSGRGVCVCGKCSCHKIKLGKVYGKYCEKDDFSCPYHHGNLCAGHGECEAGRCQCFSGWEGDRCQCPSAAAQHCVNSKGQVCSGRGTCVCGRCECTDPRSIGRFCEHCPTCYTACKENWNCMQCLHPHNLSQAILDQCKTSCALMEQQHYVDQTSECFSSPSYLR
T3 sequence (P06756 31-992 limits assumed, chain 1 of 2): as the sequence (P06756 31-992 limits assumed, chain 1 of 2) above
T3 sequence (P18564 22-707 limits assumed, chain 2 of 2): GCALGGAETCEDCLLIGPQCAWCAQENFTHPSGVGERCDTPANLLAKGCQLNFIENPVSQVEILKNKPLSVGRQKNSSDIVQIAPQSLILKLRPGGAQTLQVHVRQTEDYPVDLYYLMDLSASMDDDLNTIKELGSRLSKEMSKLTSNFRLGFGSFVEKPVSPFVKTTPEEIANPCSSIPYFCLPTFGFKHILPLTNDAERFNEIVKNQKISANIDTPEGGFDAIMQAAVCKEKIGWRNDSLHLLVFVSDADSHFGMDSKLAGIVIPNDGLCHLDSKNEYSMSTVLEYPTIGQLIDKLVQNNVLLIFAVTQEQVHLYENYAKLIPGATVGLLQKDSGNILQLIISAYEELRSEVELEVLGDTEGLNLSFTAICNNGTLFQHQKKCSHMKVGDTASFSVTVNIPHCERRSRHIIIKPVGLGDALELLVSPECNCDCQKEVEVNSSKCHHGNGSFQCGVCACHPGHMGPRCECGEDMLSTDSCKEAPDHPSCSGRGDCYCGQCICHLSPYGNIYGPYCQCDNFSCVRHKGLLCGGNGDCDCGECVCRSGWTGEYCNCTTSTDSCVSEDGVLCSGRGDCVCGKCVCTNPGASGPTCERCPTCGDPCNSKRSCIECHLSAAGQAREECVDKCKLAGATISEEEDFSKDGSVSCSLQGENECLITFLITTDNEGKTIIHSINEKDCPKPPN
recombinant integrin αvβ1, sequence (P06756 31-992 limits assumed, chain 1 of 2): as the sequence (P06756 31-992 limits assumed, chain 1 of 2) above
recombinant integrin αvβ1, sequence (P05556 21-728 limits assumed, chain 2 of 2): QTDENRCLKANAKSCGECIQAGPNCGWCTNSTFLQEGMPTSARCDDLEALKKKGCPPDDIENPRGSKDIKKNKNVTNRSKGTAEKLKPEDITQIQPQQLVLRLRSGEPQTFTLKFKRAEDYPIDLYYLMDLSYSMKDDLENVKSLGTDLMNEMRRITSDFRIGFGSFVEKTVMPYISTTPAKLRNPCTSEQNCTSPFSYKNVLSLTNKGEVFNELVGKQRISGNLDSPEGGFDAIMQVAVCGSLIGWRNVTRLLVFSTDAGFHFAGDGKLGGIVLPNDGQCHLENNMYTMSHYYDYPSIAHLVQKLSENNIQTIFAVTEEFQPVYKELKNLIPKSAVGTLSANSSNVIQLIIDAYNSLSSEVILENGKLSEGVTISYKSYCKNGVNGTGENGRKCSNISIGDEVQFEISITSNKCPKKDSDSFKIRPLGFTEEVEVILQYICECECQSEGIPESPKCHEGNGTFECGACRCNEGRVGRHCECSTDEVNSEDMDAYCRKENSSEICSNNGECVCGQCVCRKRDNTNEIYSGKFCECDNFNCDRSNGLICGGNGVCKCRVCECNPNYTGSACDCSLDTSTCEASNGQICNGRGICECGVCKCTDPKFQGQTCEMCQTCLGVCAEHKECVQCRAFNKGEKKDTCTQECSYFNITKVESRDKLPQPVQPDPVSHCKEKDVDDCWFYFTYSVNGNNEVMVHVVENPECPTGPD

B1: C6D4 IgG 2a (antibody, V domains shown)
VH: QIQLVQSGPELKKPGETVKISCKASGYTFTDYSMHWVKQAPGKGLKWVARINTETGEPTFADDFRGRFAVSLETSASTAYLQINNLKNEDTATYFCAIFYYGRDSWGQGTTLTVSS
VL: DIVMTQSPSSLAVSAGEKVTMSCKSSQSLLNSRTRKNYLAWYQQKPGQSPRLLIYWASTRESGVPDRFTGSGSGTDFTLTISSVQAEDLAVYYCKQSYNLLSFGAGTKLELKR
notes: IgG2a
For B1, the Kd in assay [1] was found to be 1.3 nM.

B2: ADWA11 2.4 (chimeric version: humanized variable domains and CH1, murine IgG2a CH2/CH3) (antibody, V domains shown)
VH: EVQLVESGGGLVQPGGSLRLSCAASGFNIKDYYMNWVRQAPGKGLEWVGWIDPDQGNTIYEPKFQGRFTISADTSKNSAYLQMNSLRAEDTAVYYCARRLLMDYWGQGTLVTVSS
VL: DIQMTQSPSSLSASVGDRVTITCRSTKSLSHFNGNTYLFWYQQKPGKAPKRLIYYMSSLASGVPSRFSGSGSGTDFTLTISSLQPEDFATYYCQQSLEYPFTFGGGTKVEIKR
In the case of B2, the Kd in assay [2] is 26.3 nM. Also, the “IC50 of inhibition of TGF-β activation (TMLC reporter cells expressing TGF-β1/GARP on immobilized αvβ8)” value in assay [3] is 57.7 µg/mL.

B3: antibody with heavy chain with the C6 VH1 (D to K) mutation expressed with light chain D4 (antibody, V domains shown)
VH: QIQLVQSGAEVKKPGASVKISCKASGYTFTKYSMHWVRQAPGQGLEWVARINTETGEPTFADDFRGRFTVTLDTSTSTAYLEIRSLRSDDTAVYFCAIFYYGRDTWGQGTTLTVSS
VL: EIVMTQSPATLSVSPGERVTMSCKSSQSLLNSRSRKNYLAWYQQKPGQAPRLLIYWASTRESGVPARFSGSGSGTEFTLTISSVQSEDFAVYYCKQSYNLLSFGQGTVLEIKR
notes: Single mutant of HuC6D4
In the case of B3, the Kd in assay [4] amounted to 2.5 nM. Moreover, the binding result in [5], in assay [6], in assay [7] and in assay [8] was “no binding” in each case.

B4: C6-TGFβ1RGD (antibody, V domains shown)
VH: QIQLVQSGAEVKKPGASVKISCKASGYTFTDYSMHWVRQAPGQGLEWVARINTETGEPTFADDFRGRFTVTLDTSTSTAYLEIRSLRSDDTAVYFCAIFYYGRDTWGQGTTLTVSS
VL: EIVMTQSPATLSVSPGERVTMSCKSSQSLLRRGDLATIHGNALAWYQQKPGQAPRLLIYWASTRESGVPARFSGSGSGTEFTLTISSVQSEDFAVYYCKQSYNLLSFGQGTVLEIKR
notes: also called C6-TGF-TGFβ1RGD
In the case of B4, in assay [9], the binding result is “binds”.

B5: fully human C6D4 F12 (version of huC6D4F12 where CH1-3 were all human) (antibody, V domains shown)
VH: QIQLVQSGAEVKKPGASVKISCKASGYTFTKYSMHWVRQAPGQGLEWVARINTETGEPTFADDFRGRFTVTLDTSTSTAYLEIRSLRSDDTAVYFCAIFYYGRDTWGQGTTLTVSS
VL: EIVMTQSPATLSVSPGERVTMSCKSSQSLLHSRSRKNYLAWYQQKPGQAPRLLIYWASTRESGVPARFSGSGSGTEFTLTISSVQSEDFAVYYCKQSYNLLSFGQGTVLEIKR
Turning to B5, in [10], the “IC50 (read off the curve)” value is ~0.1 µg/mL.

B6: HuC6D4F12 (antibody, V domains shown)
VH: QIQLVQSGAEVKKPGASVKISCKASGYTFTKYSMHWVRQAPGQGLEWVARINTETGEPTFADDFRGRFTVTLDTSTSTAYLEIRSLRSDDTAVYFCAIFYYGRDTWGQGTTLTVSS
VL: EIVMTQSPATLSVSPGERVTMSCKSSQSLLHSRSRKNYLAWYQQKPGQAPRLLIYWASTRESGVPARFSGSGSGTEFTLTISSVQSEDFAVYYCKQSYNLLSFGQGTVLEIKR
notes: Whole antibody; also called HC6D4F12; HuC6D412
On to B6, for which the values for the Kd in assay [2], in assay [4] and in assay [1] were 1.4 nM, 3.1 nM and 0.00236 nM, respectively. In addition, the “IC50 of inhibition of TGF-β activation (TMLC reporter cells expressing TGF-β1/GARP on immobilized αvβ8)” value in assay [3] was determined as 0.75 µg/mL. Besides, the “inhibition of TGF-β activation (immobilized αvβ8 at 1 µg/ml and TGF-β1/GARP expressing TMLC reporter cells); fold against ADWA11 2.4” value in assay [11] is ~77 fold. Also, in [12], the binding result is “no binding”.

B7: HuC6D4 (antibody, V domains shown)
VH: QIQLVQSGAEVKKPGASVKISCKASGYTFTDYSMHWVRQAPGQGLEWVARINTETGEPTFADDFRGRFTVTLDTSTSTAYLEIRSLRSDDTAVYFCAIFYYGRDTWGQGTTLTVSS
VL: EIVMTQSPATLSVSPGERVTMSCKSSQSLLNSRSRKNYLAWYQQKPGQAPRLLIYWASTRESGVPARFSGSGSGTEFTLTISSVQSEDFAVYYCKQSYNLLSFGQGTVLEIKR
notes: Whole antibody; also called Human C6D4; Humanized C6D4
With B7, the Kd in assay [4] was 4.9 nM; in assay [1] it was 0.0821 nM.

B8: antibody with light chain D4 VL1 (N to H) mutation expressed with heavy chain C6 (antibody, V domains shown)
VH: QIQLVQSGAEVKKPGASVKISCKASGYTFTDYSMHWVRQAPGQGLEWVARINTETGEPTFADDFRGRFTVTLDTSTSTAYLEIRSLRSDDTAVYFCAIFYYGRDTWGQGTTLTVSS
VL: EIVMTQSPATLSVSPGERVTMSCKSSQSLLHSRSRKNYLAWYQQKPGQAPRLLIYWASTRESGVPARFSGSGSGTEFTLTISSVQSEDFAVYYCKQSYNLLSFGQGTVLEIKR
notes: Single mutant of HuC6D4
Molecule B8 came in with a Kd in [4] of 4.7 nM. For the same molecule, the binding result in [5], in assay [6], in assay [7] and in assay [8] was “no binding” throughout.
